{
  "source": "patent US9587002B2",
  "about": "“Sequence of nucleotides and peptides GSE 24.2 of dyskerin, which can induce telomerase activity, method for obtaining same, therapeutic compositions and applications thereof” (CONSEJO SUPERIOR DE INVESTIGACIONES CIENTIFICAS, priority 2005, dated 2017)",
  "molecules": {"B1": {"name": "GSE 24.2: 165-pb cDNA fragment (nucleotides 268 to 433) of human dyskerin, SEQ ID NO1, encoding peptide SEQ ID NO2, expressed from pLNCX plasmid (nucleic acid, listed as Homo sapiens)", "DNA": "GGTTTCATTAATCTTGACAAGCCCTCTAACCCCTCTTCCCATGAGGTGGTAGCCTGGATTCGACGGATACTTCGGGTGGAGAAGACAGGGCACAGTGGTACTCTGGATCCCAAGGTGACTGGTTGTTTAATCGTGTGCATAGAACGAGCCACTCGCTTGGTGAAG", "modifications": "expressed from pLNCX plasmid; CDS (1)..(165) Sequence GSE 24.2"}},
  "system": "telomerase",
  "assay": "Telomerase activity (TRAP) in cells of patients with dyskeratosis congenita",
  "format": "cell-based, human",
  "settings": "DC-1, DC-2, DC-3 and carrier parent (DC-C) cells; 24 hours after transfection vs empty vector",
  "description": "FIG. 10.—Telomerase activity and expression levels of hTERT and hTR in the cells of patients with dyskeratosis congenita and in VA13 cells transiently transfected with the 24.2 plasmid or the pLNCX empty vector. A) Telomerase activity measured by means of the TRAP assay in the cells of patients with dyskeratosis congenita (DC-1, DC-2 and DC-3) and in the carrier parent (DC-C) following electroporation of 45 μg of the pLNCX empty plasmid (−) or the pLNCX 24.2 vector (+) by 15 million cells. B) RT-PCR of the RNA from cells of one of the patients with dyskeratosis congenita, DC3 transfected with the empty vector and DC3 transfected with the 24.2 plasmid, using oligos specific for hTERT and hTR. As a starting RNA control, oligos for the amplification of GAPDH were used. C) Telomerase activity in VA13 cells. […] 24 hours later, the telomerase activity was analysed as described above, using dilutions of the protein extracts from each transfection. […] RNA levels were detected as described above. […] After 24 h of transfection, the luciferase activity was analyzed as described above. […]\nTelomerase activity assay based on the TRAP method Wright et al., 1995). The telomerase activity was measured using the TRAPeze telomerase detection kit (Intergen) in accordance with the instruction manual. […]",
  "note": "“Also recorded” adds a separate entry of the source.",
  "data": [
    {"molecule": "B1", "values": [
      {"measurement": "telomerase activity in dyskeratosis congenita cells", "result": "an increase in telomerase activity was observed; also recorded: compensates for the defects in telomerase activity"}
    ]}
  ]
}
